According to patent US20220315654A1 (NOVIMMUNE, published 2022):

T1: recombinant human PD-L2 soluble protein (biotinylated) (human, UniProt Q9BQ51 20-220, limits assumed, biotinylated)
T1 construct: Bought soluble protein
T1 sequence (looked up): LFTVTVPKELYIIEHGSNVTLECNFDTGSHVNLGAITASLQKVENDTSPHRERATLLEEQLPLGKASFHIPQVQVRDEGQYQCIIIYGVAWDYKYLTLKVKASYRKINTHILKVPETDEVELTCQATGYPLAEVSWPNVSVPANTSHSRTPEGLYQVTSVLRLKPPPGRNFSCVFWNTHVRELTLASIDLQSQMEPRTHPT


How the values were obtained:
[1] = target: T2, recombinant cynomolgus monkey PD-L1 soluble protein (biotinylated) (cynomolgus monkey, UniProt G7PSE7 19-238, biotinylated (site not stated); vendor tag not carried in the letters); assay: sandwich ELISA: antibody captured on coated anti-human Fc, biotinylated recombinant cynomolgus PD-L1 titrated (x axis, nM), streptavidin-HRP/Amplex red fluorescence
T2 construct: Two suppliers are named for the two assays; also called Cyno PD-L1; cynomolgus PD-L1; not shown: vendor tag(s) of the recombinant proteins (Sino Biological; Acrobiosystems #PD1-052H4) and the biotin label
T2 sequence (G7PSE7 entry or part of it limits assumed): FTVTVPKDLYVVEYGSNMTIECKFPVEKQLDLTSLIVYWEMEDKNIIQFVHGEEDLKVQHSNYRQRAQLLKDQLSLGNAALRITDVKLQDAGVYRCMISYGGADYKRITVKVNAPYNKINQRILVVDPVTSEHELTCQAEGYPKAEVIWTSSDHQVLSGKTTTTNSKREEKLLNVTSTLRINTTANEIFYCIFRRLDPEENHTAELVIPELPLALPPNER

[2] = target: T3, recombinant mouse PD-L1 soluble protein (biotinylated) (mouse, UniProt Q9EP73 19-239, limits assumed, biotinylated); assay: sandwich ELISA: antibody captured on coated anti-human Fc, biotinylated recombinant mouse PD-L1 titrated (x axis, nM), streptavidin-HRP/Amplex red fluorescence
T3 construct: Two sources are named for the two assays
T3 sequence (Q9EP73 19-239 limits assumed): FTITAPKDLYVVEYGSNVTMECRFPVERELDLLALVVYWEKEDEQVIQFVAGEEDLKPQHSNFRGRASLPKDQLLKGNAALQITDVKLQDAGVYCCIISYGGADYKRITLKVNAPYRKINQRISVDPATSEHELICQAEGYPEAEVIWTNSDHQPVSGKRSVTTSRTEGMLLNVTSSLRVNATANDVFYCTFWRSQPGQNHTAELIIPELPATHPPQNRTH

[3] = target: T4, recombinant human PD-L1 soluble protein (biotinylated) (human, UniProt Q9NZQ7 19-238, biotinylated); assay: sandwich ELISA: antibody captured on coated anti-human Fc, biotinylated recombinant human PD-L1 titrated (x axis, nM), streptavidin-HRP/Amplex red fluorescence
T4 construct: Bought soluble protein; also called hPD-L1
T4 sequence (Q9NZQ7 19-238 limits assumed): as the sequence (G7PSE7 entry or part of it limits assumed) above, with T33A, S34A, N62S, Q68R, R82Q, L173F, A185T, I192T, L215H counted along it

[4] = target: T1, recombinant human PD-L2 soluble protein …; assay: sandwich ELISA: antibody captured on coated anti-Fc, biotinylated recombinant human PD-L2 titrated, streptavidin-HRP/Amplex red fluorescence
[5] = target: T4, recombinant human PD-L1 soluble protein …; assay: BLI (OctetRED96), biotinylated PD-L1 on streptavidin biosensors, bsAb in solution, 1:1 global fit, 30 °C
[6] = target: T2, recombinant cynomolgus monkey PD-L1 …; assay: BLI (OctetRED96), biotinylated cynomolgus PD-L1 on streptavidin biosensors, bsAb in solution, 1:1 global fit, 30 °C
[7] = target: T3, recombinant mouse PD-L1 soluble protein …; assay: BLI (OctetRED96), biotinylated mouse PD-L1 on streptavidin biosensors, bsAb in solution, 1:1 global fit, 30 °C
[8] = target: T5, human PD-L1 on cells (human PD-L1-transfected CHO cells; IFNg-induced HT-1080 tumor cells) (human, UniProt Q9NZQ7 19-290); assay: inhibition of human PD-1-moFc binding to human PD-L1-transfected CHO cells, CellInsight CX5
T5 construct: whole, on cells; CHO transfectants are negative for human CD47; HT-1080 cells also carry CD47; also called hPD-L1-transfected CHO cells; PD-L1+CD47+ HT-1080
T5 sequence (Q9NZQ7 19-290): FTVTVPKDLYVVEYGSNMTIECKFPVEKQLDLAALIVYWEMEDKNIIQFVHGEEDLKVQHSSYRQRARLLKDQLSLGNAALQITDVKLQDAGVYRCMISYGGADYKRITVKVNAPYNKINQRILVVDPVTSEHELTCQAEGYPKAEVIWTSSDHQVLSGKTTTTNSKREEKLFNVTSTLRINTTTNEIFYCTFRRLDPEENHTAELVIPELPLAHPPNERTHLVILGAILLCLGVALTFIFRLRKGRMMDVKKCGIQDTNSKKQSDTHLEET

[9] = target: T6, human CD47 on cells (Raji, Nalm-6, HT-1080 tumor cells, human red blood cells) (human, UniProt Q08722 19-323); assay: flow cytometry on human red blood cells (CD47+, PD-L1-), detection with AF647 anti-human Fc F(ab')2
T6 construct: whole, on cells; Raji, Nalm-6 and red blood cells carry no or very little PD-L1; HT-1080 carries both targets; also called IAP

[10] = target: T3, recombinant mouse PD-L1 soluble protein …; assay: sandwich ELISA: antibody captured on coated anti-human Fc, biotinylated recombinant mouse PD-L1 titrated, streptavidin-HRP/Amplex red fluorescence
[11] = target: T5, human PD-L1 on cells (human …); assay: inhibition of human PD-1-moFc binding to IFNg-induced PD-L1+CD47+ HT-1080 cells, CellInsight CX5

| EC50 (read off the curve) [1] | EC50 (read off the curve) [2] | EC50 (read off the curve) [3] | Kd [5] | Binder | binding result [4] | also measured |
| --- | --- | --- | --- | --- | --- | --- |
| ~0.6 nM | ~0.07 nM | ~0.1 nM | – | S46 bsAb (bispecific antibody, human IgG1, kappa, lambda, also called K2xS46 CD47xPD-L1 bispecific antibody; K2xS46) common heavy chain: not shown kappa light chain (anti-CD47 K2): not shown lambda light chain (anti-PD-L1 S46): QSALTQPASVSGSPGQSITISCTGTSSDVLRPPLVSWYQQHPGKAPKLMIYFASLRPSGVSNRFSGSKSGNTASLTISGLQAEDEADYYCSSWDNAGDGHVFGGGTKLTVLGQPKAAPSVTLFPPSSEELQANKATLVCLISDFYPGAVTVAWKADSSPVKAGVETTTPSKQSNNKYAASSYLSLTPEQWKSHRSYSCQVTHEGSTVEKTVAPTECS | – | – |
| ~0.03 nM | ~0.03 nM | ~0.07 nM | 0.5 nM | K2×S79 CD47×PD-L1 bispecific antibody (bispecific antibody, human IgG1, kappa, lambda, also called K2xS79; S79 bsAb) heavy: not shown light 1: not shown light 2: QSALTQPASVSGSPGQSITISCTGTSSDVFRPPLVSWYQQHPGKAPKLMIYFASLRPSGVSNRFSGSKSGNTASLTISGLQAEDEADYYCSSWDHTGDGHVFGGGTKLTVLGQPKAAPSVTLFPPSSEELQANKATLVCLISDFYPGAVTVAWKADSSPVKAGVETTTPSKQSNNKYAASSYLSLTPEQWKSHRSYSCQVTHEGSTVEKTVAPTECS | no binding (tested: about 40 nM PD-L2 protein) | Kd [6]: 1.35 nM; Kd [7]: 0.52 nM; IC50 [8]: 0.03 nM |
| – | – | ~0.1 nM | 0.92 nM | K2×S23 CD47×PD-L1 bispecific antibody (bispecific antibody, human IgG1, kappa, lambda, also called K2xS23; K2×S23 bsAb) heavy: not shown light 1: not shown light 2: QSALTQPASVSGSPGQSITISCTGTSSDVAKIPLVSWYQQHPGKAPKLMIYFASLRPSGVSNRFSGSKSGNTASLTISGLQAEDEADYYCSSWDNAGDGHVFGGGTKLTVLGQPKAAPSVTLFPPSSEELQANKATLVCLISDFYPGAVTVAWKADSSPVKAGVETTTPSKQSNNKYAASSYLSLTPEQWKSHRSYSCQVTHEGSTVEKTVAPTECS | no binding (tested: about 40 nM PD-L2 protein) | binding result [2]: binds; binding result [9]: binds |
| ~0.03 nM | – | ~0.07 nM | – | S100 anti-PD-L1 mAb (antibody, human IgG1, lambda, V domains shown, Bivalent monospecific anti-PD-L1 antibody; also called anti-PD-L1 mAb 5100) VH: not shown VL: QSVLTQPPSASGTPGQRVTISCSGSSSNIENKPVNWYQQLPGTAPKLLIYHDTTRPSGVPDRFSGSKSGTSASLAISGLQSEDEADYYCAAWDFATWPATEVFGGGTKLTVLG | no binding (tested: about 40 nM PD-L2 protein) | binding result [10]: no binding (tested: about 33 nM PD-L1 protein); IC50 [11]: 0.00084 nM |
| – | – | – | 3 nM | K2×S15 CD47×PD-L1 bispecific antibody (bispecific antibody, human IgG1, kappa, lambda, also called K2xS15; K2×S15 bsAb) heavy: not shown light 1: not shown light 2: QSALTQPASVSGSPGQSITISCTGTSSDVVKNNFVSWYQQHPGKAPKLMIYFGSVRPSGVSNRFSGSKSGNTASLTISGLQAEDEADYYCSSWDEPDRPFGGGTKLTVLGQPKAAPSVTLFPPSSEELQANKATLVCLISDFYPGAVTVAWKADSSPVKAGVETTTPSKQSNNKYAASSYLSLTPEQWKSHRSYSCQVTHEGSTVEKTVAPTECS | – | – |
| – | – | – | 0.83 nM | K2×S58 CD47×PD-L1 bispecific antibody (bispecific antibody, human IgG1, kappa, lambda, also called K2xS58; K2×S58 bsAb) heavy: not shown light 1: not shown light 2: QSALTQPASVSGSPGQSITISCNSPSSDVVKNNFVSWYQQHPGKAPKLMIYFGSVTGPGVSNRFSGSKSGNTASLTISGLQAEDEADYYCSSWDEPDRPFGGGTKLTVLGQPKAAPSVTLFPPSSEELQANKATLVCLISDFYPGAVTVAWKADSSPVKAGVETTTPSKQSNNKYAASSYLSLTPEQWKSHRSYSCQVTHEGSTVEKTVAPTECS | – | – |
| ~0.03 nM | ~0.03 nM | ~0.07 nM | – | S79 anti-PD-L1 mAb (antibody, human IgG1, lambda, V domains shown, Bivalent monospecific IgG1 anti-PD-L1 antibody; also called S79_Sc3_1G7_VLCL2 aPDL1 IGLV2-23; anti-PD-L1 mAb S79) VH: not shown VL: QSALTQPASVSGSPGQSITISCTGTSSDVFRPPLVSWYQQHPGKAPKLMIYFASLRPSGVSNRFSGSKSGNTASLTISGLQAEDEADYYCSSWDHTGDGHVFGGGTKLTVLG | no binding (tested: about 40 nM PD-L2 protein) | IC50 [11]: 0.00252 nM |
| – | – | – | 0.7 nM | K2×S93 CD47×PD-L1 bispecific antibody (bispecific antibody, human IgG1, kappa, lambda, also called K2xS93; K2×S93 bsAb) heavy: not shown light 1: not shown light 2: QSVLTQPPSASGTPGQRVTISCVSTSDHIAHKPVNWYQQLPGTAPKLLIYHDTSRPDGVPDRFSGSKSGTSASLAISGLQSEDEADYYCAAWDFATWPATEVFGGGTKLTVLGQPKAAPSVTLFPPSSEELQANKATLVCLISDFYPGAVTVAWKADSSPVKAGVETTTPSKQSNNKYAASSYLSLTPEQWKSHRSYSCQVTHEGSTVEKTVAPTECS | – | – |
| – | – | – | 0.8 nM | K2×S96 CD47×PD-L1 bispecific antibody (bispecific antibody, human IgG1, kappa, lambda, also called K2xS96; K2×S96 bsAb) heavy: not shown light 1: not shown light 2: QSVLTQPPSASGTPGQRVTISCNLPSADIAHKPVNWYQQLPGTAPKLLIYHDTSVVTGVPDRFSGSKSGTSASLAISGLQSEDEADYYCAAWDFATWPATEVFGGGTKLTVLGQPKAAPSVTLFPPSSEELQANKATLVCLISDFYPGAVTVAWKADSSPVKAGVETTTPSKQSNNKYAASSYLSLTPEQWKSHRSYSCQVTHEGSTVEKTVAPTECS | – | – |
| ~0.03 nM | – | ~0.07 nM | 0.7 nM | K2×S94 CD47×PD-L1 bispecific antibody (bispecific antibody, human IgG1, kappa, lambda, also called K2xS94; S94 bsAb) heavy: not shown light 1: not shown light 2: QSVLTQPPSASGTPGQRVTISCISGSVDIAHKPVNWYQQLPGTAPKLLIYHDTSTPDGVPDRFSGSKSGTSASLAISGLQSEDEADYYCAAWDFATWPATEVFGGGTKLTVLGQPKAAPSVTLFPPSSEELQANKATLVCLISDFYPGAVTVAWKADSSPVKAGVETTTPSKQSNNKYAASSYLSLTPEQWKSHRSYSCQVTHEGSTVEKTVAPTECS | – | binding result [10]: no binding (tested: about 33 nM PD-L1 protein); IC50 [8]: 0.05 nM |
